The values that follow are results of earlier work, collected in paper PMC3760146.

pKd: −log10 of the molar value.

The target in this data set is Histone H4 K8ac peptide 1-12 (Homo sapiens) (UniProt P62805). The data set can be described thus: NMR titration.

What is called pKd is the Kd on a negative log10 scale, so that one unit is a factor of ten. P/CAF bromodomain (from UniProt Q92831): the pKd is 3.46.
